# In patent US20190002567A1 (LABORATOIRE FRANCAIS DU FRACTIONNEMENT ET DES …, published 2019):
# Positions count from the first letter of the chain named.
# T1: human CD303 antigen (C-type lectin domain family 4 member C) (human, UniProt Q8WTT0 1-213)
# T1 sequence: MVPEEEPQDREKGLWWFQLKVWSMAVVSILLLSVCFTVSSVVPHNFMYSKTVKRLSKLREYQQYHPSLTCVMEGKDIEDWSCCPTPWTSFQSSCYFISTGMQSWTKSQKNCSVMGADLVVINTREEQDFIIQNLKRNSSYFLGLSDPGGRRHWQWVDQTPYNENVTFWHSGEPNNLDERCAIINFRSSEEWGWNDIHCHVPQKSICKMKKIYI
# B1: chimeric antibody 122A2 (antibody, human IgG1, kappa)
# heavy: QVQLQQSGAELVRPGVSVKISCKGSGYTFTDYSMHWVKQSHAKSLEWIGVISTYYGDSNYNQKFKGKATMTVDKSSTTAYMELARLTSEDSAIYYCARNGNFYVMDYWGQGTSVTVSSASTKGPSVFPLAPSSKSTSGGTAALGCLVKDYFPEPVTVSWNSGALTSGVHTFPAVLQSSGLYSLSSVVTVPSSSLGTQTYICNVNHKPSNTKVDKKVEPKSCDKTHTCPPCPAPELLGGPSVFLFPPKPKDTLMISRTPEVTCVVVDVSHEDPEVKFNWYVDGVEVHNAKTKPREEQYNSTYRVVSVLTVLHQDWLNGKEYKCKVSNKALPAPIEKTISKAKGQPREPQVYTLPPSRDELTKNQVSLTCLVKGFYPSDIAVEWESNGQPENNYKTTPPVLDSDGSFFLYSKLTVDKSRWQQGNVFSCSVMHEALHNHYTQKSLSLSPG
# light: DIQMTQTTSSLSASLGDRVTISCRASQDISNYLNWYQQKPDGTVKLLIYYTSRLHSGVPSRFSGSGSGTDYSLTISNLDQEDIATYFCQQGNTLPWTFGGGTKLEIKRTVAAPSVFIFPPSDEQLKSGTASVVCLLNNFYPREAKVQWKVDNALQSGNSQESVTEQDSKDSTYSLSSTLTLSKADYEKHKVYACEVTHQGLSSPVTKSFNRGEC
# notes: Family 1; also called Ch; 122A2 mAb; Ch122A2 mAb
# B2: chimeric antibody 104C12 (antibody, human IgG1, kappa)
# heavy: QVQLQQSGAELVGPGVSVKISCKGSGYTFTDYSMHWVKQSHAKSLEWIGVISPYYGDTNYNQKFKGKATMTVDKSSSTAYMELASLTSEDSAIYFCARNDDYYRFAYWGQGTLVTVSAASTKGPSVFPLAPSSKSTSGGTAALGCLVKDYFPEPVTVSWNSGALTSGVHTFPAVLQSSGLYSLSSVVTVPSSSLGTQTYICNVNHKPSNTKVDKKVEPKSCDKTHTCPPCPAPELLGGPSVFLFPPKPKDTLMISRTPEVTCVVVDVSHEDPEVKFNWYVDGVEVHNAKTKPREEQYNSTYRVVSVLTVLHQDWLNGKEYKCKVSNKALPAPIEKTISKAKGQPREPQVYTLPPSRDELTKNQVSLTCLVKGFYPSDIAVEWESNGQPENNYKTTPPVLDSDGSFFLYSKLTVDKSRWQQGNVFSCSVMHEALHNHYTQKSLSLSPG
# light: DLQMTQTPSSLSASLGDRVTISCRASQDINNYLSWYQEKPDGTFKLLIYYTSRLHSGVPSRFSGSGSGTDYSLTVRNLEQEDIGTYFCQQGKTLPWTFGGGTKLEIRRTVAAPSVFIFPPSDEQLKSGTASVVCLLNNFYPREAKVQWKVDNALQSGNSQESVTEQDSKDSTYSLSSTLTLSKADYEKHKVYACEVTHQGLSSPVTKSFNRGEC
# notes: Family 1
# B3: chimeric antibody 104E10 (antibody, human IgG1, kappa)
# heavy: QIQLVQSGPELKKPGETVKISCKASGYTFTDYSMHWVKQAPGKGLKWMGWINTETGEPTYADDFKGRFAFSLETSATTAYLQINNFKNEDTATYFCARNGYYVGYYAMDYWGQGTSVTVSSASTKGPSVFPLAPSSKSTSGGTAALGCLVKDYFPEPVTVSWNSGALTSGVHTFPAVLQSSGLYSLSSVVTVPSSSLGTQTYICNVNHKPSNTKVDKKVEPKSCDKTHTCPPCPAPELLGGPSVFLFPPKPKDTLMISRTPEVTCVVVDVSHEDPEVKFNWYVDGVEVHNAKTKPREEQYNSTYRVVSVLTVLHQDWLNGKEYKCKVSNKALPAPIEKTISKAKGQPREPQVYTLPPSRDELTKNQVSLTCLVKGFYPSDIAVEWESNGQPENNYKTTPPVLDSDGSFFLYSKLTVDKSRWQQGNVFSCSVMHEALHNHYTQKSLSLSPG
# light: QIVLTQSPAIMSASPGEKVTMTCSASSSVIYMHWFQQKPGTSPKLWIYSTSNLASGVPARFSGSGSGTSYSLTISRMEAEDAATYYCQQRRSYPYTFGGGTKLEIKRTVAAPSVFIFPPSDEQLKSGTASVVCLLNNFYPREAKVQWKVDNALQSGNSQESVTEQDSKDSTYSLSSTLTLSKADYEKHKVYACEVTHQGLSSPVTKSFNRGEC
# notes: Family 2
# B4: chimeric antibody 114D11 (antibody, human IgG1, kappa)
# heavy: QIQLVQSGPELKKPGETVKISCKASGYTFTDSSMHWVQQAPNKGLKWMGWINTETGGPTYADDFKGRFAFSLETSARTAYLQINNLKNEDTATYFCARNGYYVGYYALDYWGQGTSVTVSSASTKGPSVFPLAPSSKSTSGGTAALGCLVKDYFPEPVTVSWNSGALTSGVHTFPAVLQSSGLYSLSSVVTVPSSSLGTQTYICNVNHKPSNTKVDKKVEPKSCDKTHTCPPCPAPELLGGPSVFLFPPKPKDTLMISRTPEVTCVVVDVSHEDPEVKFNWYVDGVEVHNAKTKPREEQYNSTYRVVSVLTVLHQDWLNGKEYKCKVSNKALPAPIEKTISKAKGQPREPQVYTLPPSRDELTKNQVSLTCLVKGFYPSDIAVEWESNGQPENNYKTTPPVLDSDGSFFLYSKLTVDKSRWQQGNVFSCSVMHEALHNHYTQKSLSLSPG
# light: B3 light with M21I, I30F
# notes: Family 2
# B5: chimeric antibody 102E9 (antibody, human IgG1, kappa)
# heavy: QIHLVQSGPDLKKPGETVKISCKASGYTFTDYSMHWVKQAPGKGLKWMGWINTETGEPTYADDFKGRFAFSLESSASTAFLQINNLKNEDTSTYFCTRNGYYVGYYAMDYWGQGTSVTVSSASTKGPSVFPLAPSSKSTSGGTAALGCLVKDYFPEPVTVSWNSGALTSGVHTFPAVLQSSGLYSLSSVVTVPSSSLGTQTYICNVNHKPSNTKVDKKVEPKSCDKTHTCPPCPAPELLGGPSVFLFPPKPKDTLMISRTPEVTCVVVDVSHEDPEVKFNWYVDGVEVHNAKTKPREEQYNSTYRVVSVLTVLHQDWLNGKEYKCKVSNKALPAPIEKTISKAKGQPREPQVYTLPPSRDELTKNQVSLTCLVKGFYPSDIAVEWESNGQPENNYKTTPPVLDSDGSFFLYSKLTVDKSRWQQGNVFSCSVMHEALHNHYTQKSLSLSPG
# light: B3 light with M21I, M32I, N52Y, Y95F
# notes: Family 2; the text gives the same values for 102E9
# Target: T1, human CD303 antigen (C-type lectin …)
# Assay: cell-based or functional assay
Binder,ADCC EC50 (ng/mL) on Fc Gamma chain-CD303 Jurkat target cells [ng/mL],ADCC Emax (% lysis) on Fc Gamma chain-CD303 Jurkat target cells [% lysis]
B1,0.159,42.4
B2,0.214,41.8
B3,8.28,40.5
B4,3.61,37.4
B5,3.42,38.9

# Target: T2, FcγRIIIa (CD16a) (UniProt P08637 17-254, limits assumed)
# T2 construct: whole, on cells; also called FcvRIIIa
# T2 sequence (P08637 17-254 limits assumed): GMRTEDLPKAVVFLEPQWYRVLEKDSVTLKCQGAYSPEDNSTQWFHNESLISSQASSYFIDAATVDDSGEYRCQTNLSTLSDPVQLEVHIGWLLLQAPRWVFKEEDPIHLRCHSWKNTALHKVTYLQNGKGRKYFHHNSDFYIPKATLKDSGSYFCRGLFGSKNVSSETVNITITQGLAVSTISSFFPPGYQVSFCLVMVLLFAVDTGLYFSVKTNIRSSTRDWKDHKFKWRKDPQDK
# Assay: competition with 3G8-PE for CD16 on NK cells, flow cytometry
# Experimental: After washing, the binding of 3G8-PE to CD16 expressed by the NK cells was evaluated by flow cytometry. Mean fluorescence intensity (MFI) values are expressed as a percentage, 100% being the value obtained with the 3G8-PE antibody alone, and 0% the value obtained in the absence of 3G8-PE.
row,Binder,IC50 [µg/mL]
1,B1,40.4
2,B2,26.8
3,B3,18.1
4,B4,45
5,B5,37
